Results published in article PMC2063866 (The Journal of Cell Biology, 2006).

Molecular target: Recombinant full-length WAVE2 tagged with GST at its COOH terminus (UniProt Q9Y6W5 1-498)
Test: dual polarization interferometry

Recombinant full-length WAVE2 tagged with GST at its COOH terminus, sequence (Q9Y6W5 whole entry): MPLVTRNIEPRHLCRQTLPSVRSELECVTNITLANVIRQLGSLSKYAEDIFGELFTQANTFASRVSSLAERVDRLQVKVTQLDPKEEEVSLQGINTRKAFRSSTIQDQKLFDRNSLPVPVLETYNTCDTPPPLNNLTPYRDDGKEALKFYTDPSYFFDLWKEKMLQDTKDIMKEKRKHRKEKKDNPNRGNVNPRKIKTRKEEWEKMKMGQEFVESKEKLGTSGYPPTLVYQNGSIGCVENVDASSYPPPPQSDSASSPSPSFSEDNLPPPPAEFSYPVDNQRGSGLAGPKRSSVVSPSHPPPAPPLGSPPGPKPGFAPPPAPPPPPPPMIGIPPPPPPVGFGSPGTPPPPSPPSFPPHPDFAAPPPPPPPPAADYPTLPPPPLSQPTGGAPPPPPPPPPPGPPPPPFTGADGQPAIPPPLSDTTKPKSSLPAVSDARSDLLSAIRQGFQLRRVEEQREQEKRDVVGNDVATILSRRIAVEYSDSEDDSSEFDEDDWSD

B1: Coiled-coil region of Abi1 (aa 6–124) (domain or fragment)
chain: MLLEEEIPSGKRALIESYQNLTRVADYCENNYIQATDKRKALEETKAYTTQSLASVAYQINALANNVLQLLDIQASQLRRMESSINHISQTVDIHKEKVARREIGILTTNKNTSRTHKI
Kd: 600 nM
